How the values were obtained:
Assay in all cases: purified protein
purified protein [1] = substrate: NC(=O)c1ccc[n+]([C@@H]2O[C@H](COP(=O)(O)OP(=O)(O)OC[C@H]3O[C@@H](n4cnc5c(N)ncnc54)[C@H](OP(=O)(O)O)[C@@H]3O)[C@@H](O)[C@H]2O)c1; assay type: biochemical, Synechocystis sp. PCC 6803; conditions: 3 mM malate, 100 mM NH4Cl, 0.5 mM MnCl2, pH 8.3, 50°C, malate oxidation, varied: cofactor
purified protein [2] = substrate: O=C(O)C[C@H](O)C(=O)O; conditions: malate oxidation
purified protein [3] = substrate: NC(=O)C1=CN([C@@H]2O[C@H](COP(=O)(O)OP(=O)(O)OC[C@H]3O[C@@H](n4cnc5c(N)ncnc54)[C@H](O)[C@@H]3O)[C@@H](O)[C@H]2O)C=CC1; assay type: biochemical, Nostoc sp. PCC 7120 = FACHB-418; conditions: 0.1 mM oxaloacetate, pH 9.0, 50°C, reductive reaction, varied: cofactor
purified protein [4] = substrate: O=C(O)CC(=O)C(=O)O; assay type: biochemical, Nostoc sp. PCC 7120 = FACHB-418; conditions: 0.1 mM NADH, pH 9.0, 50°C, reductive reaction
purified protein [5] = substrate: NC(=O)c1ccc[n+]([C@@H]2O[C@H](COP(=O)(O)OP(=O)(O)OC[C@H]3O[C@@H](n4cnc5c(N)ncnc54)[C@H](O)[C@@H]3O)[C@@H](O)[C@H]2O)c1; assay type: biochemical, Nostoc sp. PCC 7120 = FACHB-418; conditions: 5 mM malate, pH 9.0, 50°C, malate oxidation, varied: cofactor
purified protein [6] = substrate: NC(=O)C1=CN([C@@H]2O[C@H](COP(=O)(O)OP(=O)(O)OC[C@H]3O[C@@H](n4cnc5c(N)ncnc54)[C@H](O)[C@@H]3O)[C@@H](O)[C@H]2O)C=CC1; assay type: biochemical, Limnospira platensis; conditions: 0.5 mM oxaloacetate, pH 8.5, 50°C, reductive reaction, varied: cofactor
purified protein [7] = substrate: O=C(O)CC(=O)C(=O)O; assay type: biochemical, Limnospira platensis; conditions: 0.1 mM NADH, pH 8.5, 50°C, reductive reaction
purified protein [8] = substrate: NC(=O)c1ccc[n+]([C@@H]2O[C@H](COP(=O)(O)OP(=O)(O)OC[C@H]3O[C@@H](n4cnc5c(N)ncnc54)[C@H](O)[C@@H]3O)[C@@H](O)[C@H]2O)c1; assay type: biochemical, Limnospira platensis; conditions: 1 mM malate, pH 8.5, 50°C, malate oxidation, varied: cofactor
purified protein [9] = substrate: NC(=O)C1=CN([C@@H]2O[C@H](COP(=O)(O)OP(=O)(O)OC[C@H]3O[C@@H](n4cnc5c(N)ncnc54)[C@H](O)[C@@H]3O)[C@@H](O)[C@H]2O)C=CC1; assay type: biochemical, Synechocystis sp. PCC 6803; conditions: 0.5 mM oxaloacetate, pH 8.0, 50°C, reductive reaction, varied: cofactor
purified protein [10] = substrate: O=C(O)CC(=O)C(=O)O; assay type: biochemical, Synechocystis sp. PCC 6803; conditions: 0.1 mM NADH, pH 8.0, 50°C, reductive reaction
purified protein [11] = substrate: NC(=O)c1ccc[n+]([C@@H]2O[C@H](COP(=O)(O)OP(=O)(O)OC[C@H]3O[C@@H](n4cnc5c(N)ncnc54)[C@H](O)[C@@H]3O)[C@@H](O)[C@H]2O)c1; assay type: biochemical, Synechocystis sp. PCC 6803; conditions: 4 mM malate, pH 8.0, 50°C, malate oxidation, varied: cofactor
purified protein [12] = substrate: NC(=O)c1ccc[n+]([C@@H]2O[C@H](COP(=O)(O)OP(=O)(O)OC[C@H]3O[C@@H](n4cnc5c(N)ncnc54)[C@H](OP(=O)(O)O)[C@@H]3O)[C@@H](O)[C@H]2O)c1; assay type: biochemical, Nostoc sp. PCC 7120 = FACHB-418; conditions: 3 mM malate, 100 mM NH4Cl, 0.1 mM MnCl2, pH 8.8, 52°C, malate oxidation, varied: cofactor
purified protein [13] = substrate: CC(=O)C(=O)O; assay type: biochemical, Nostoc sp. PCC 7120 = FACHB-418; conditions: 0.1 mM NADPH, 100 mM NH4Cl, 0.1 mM MnCl2, 50 mM KHCO3, pH 8.8, 52°C, reductive reaction
purified protein [14] = substrate: NC(=O)C1=CN([C@@H]2O[C@H](COP(=O)(O)OP(=O)(O)OC[C@H]3O[C@@H](n4cnc5c(N)ncnc54)[C@H](OP(=O)(O)O)[C@@H]3O)[C@@H](O)[C@H]2O)C=CC1; assay type: biochemical, Nostoc sp. PCC 7120 = FACHB-418; conditions: 30 mM pyruvate, 100 mM NH4Cl, 0.1 mM MnCl2, 50 mM KHCO3, pH 8.8, 52°C, reductive reaction, varied: cofactor
[15] = 0.5 mM NADP+, 100 mM NH4Cl, 0.5 mM MnCl2, pH 8.3, 50°C, pH 8.3, 50.0 °C
[16] = 8 mM NAD+, pH 9.0, 50°C, pH 9.0, 50.0 °C
[17] = 8 mM NAD+, pH 8.5, 50°C, pH 8.5, 50.0 °C
[18] = 8 mM NAD+, pH 8.0, 50°C, pH 8.0, 50.0 °C
[19] = 0.5 mM NADP+, 100 mM NH4Cl, 0.1 mM MnCl2, pH 8.8, 52°C, pH 8.8, 52.0 °C

B1: SyME (Synechocystis sp. PCC 6803 substr. Kazusa) (protein)
chain: MVSLTPNPSYSVSLLLELPNHAGTLASVTQAIADAGGSFGQISLIESNLKLTRREIAVDASSSEHAEKIIGAVKALDNVKLLKVSDRTFDLHRQGKISVVSRIPLTSQSDLAMAYTPGVGRICRAIAEDPEKVYSLTIKSNTVAVVTDGSAVLGLGNLGPEAALPVMEGKAMLFKEFAQLDAFPICLDTQDTEEIIRTVKAIAPVFGGVNLEDIAAPRCFEIEARLKKELNIPVFHDDQHGTAIVTLAALLNALKFVGKAMAAVRIVINGAGAAGLAIAELLKESGATDIWICDSKGIVGKHRTDLNSKKQSFAVDAEGTLADAMAGADVFLGVSAPGVVTKEMVQSMAKDPIVFAMANPIPEIQPELIQEDAAVIATGRSDYPNQINNVLAFPGVFRGAIDCRASIITTTMCIEAAKAIASLVHSNTLDSEHIIPSVFDNRVATTVASAVQLAARNEGVAGQ
notes: full length, His-tagged (pQE80L), E. coli BL21(DE3), synthesized gene
Purified protein [1]
  K0.5: 0.015 ± 0.001 mM
  kcat: 55.7 ± 3.3 s⁻¹
  kcat/Km: 3.689e+06 ± 23000 M⁻¹ s⁻¹
Purified protein [2]; [15]
  K0.5: 0.46 ± 0.06 mM
  kcat: 77.2 s⁻¹
  kcat/Km: 169000 M⁻¹ s⁻¹

B2: NoMDH (Nostoc sp. PCC 7120 = FACHB-418) (protein)
chain: MFSSPDSPILHCLPRVAIIGAGRVGSTLAQRIAEKNLADVVLLDIVEGIPQGLALDLLEARGIELHNRQIIGTNNYADTSGSQIVVITAGFPRKPGMSRDDLLRTNAKIVIEAAKQAIAYSPYAIFIVVTNPLDVMTYLAWEATGLPRNRIMGMAGVLDSARFETFIALELGVLPADVKAMVLGSHGDLMVPLSRYATVNGIPITQLLDAVTIERLVERTRNGGAEIVELMQTGGAFFAPASATSLMVESILLNQSRLLPVSIYLQGEYDLKDVVIGVPCRLGLNGIESVIELNLSDSEREALHISAKSVQKNIERWRSLQNS
notes: full length, GST-tagged (pGEX6P-1), tag kept, E. coli BL21(DE3), 10°C expression
Purified protein [3]
  K0.5: 0.0093 ± 0.0001 mM
  kcat: 1.3 ± 0.1 s⁻¹
  kcat/Km: 142000 ± 8000 M⁻¹ s⁻¹
Purified protein [4]
  K0.5: 0.026 ± 0.002 mM
  kcat: 1.1 ± 0.03 s⁻¹
  kcat/Km: 42000 ± 2000 M⁻¹ s⁻¹
Purified protein [5]
  K0.5: 8.45 ± 1.95 mM
  kcat: 6.3 ± 0.5 s⁻¹
  kcat/Km: 770 ± 100 M⁻¹ s⁻¹
Purified protein [2]; [16]
  K0.5: 1.88 ± 0.56 mM
  kcat: 3.5 s⁻¹
  kcat/Km: 2000 M⁻¹ s⁻¹

B3: ArMDH (Limnospira platensis NIES-46) (protein)
chain: MQMASSMFFPPSCHPTQVSIIGAGKVGGTLAQRIAESNVAHVVLLDVVEGLPQGVALDLMQAGSVEGHDRKILGTNDYADTAGSDVVVITAGRPRTPGMNRNDLIETNAPIVARAVTNAIASSPNAVIIIVTNPLDVMTYIAWQVSQIEPFRIMGMAGVLDSARFQAFIATELNVSVADVNATVMGSHGDLMVPLPRYSTVNGIPITELMDTETINRLIARTRNGGAEIVGLLKTGGAYYAPASSVRTMVESILLNRRRLLPTSAYLKGEYGMKDIFLGVPCWLGCRGVEAVLELNLTDNEREALNSCAQSVREGIEKADAVLAATAAV
notes: full length, GST-tagged (pGEX6P-1), tag kept, E. coli BL21(DE3)
Purified protein [6]
  K0.5: 0.0085 ± 0.0025 mM
  kcat: 1.7 ± 0.1 s⁻¹
  kcat/Km: 214000 ± 50000 M⁻¹ s⁻¹
Purified protein [7]
  K0.5: 0.041 ± 0.001 mM
  kcat: 1.4 ± 0.03 s⁻¹
  kcat/Km: 34000 ± 400 M⁻¹ s⁻¹
Purified protein [8]
  K0.5: 0.30 ± 0.02 mM
  kcat: 0.5 ± 0.01 s⁻¹
  kcat/Km: 1700 ± 100 M⁻¹ s⁻¹
Purified protein [2]; [17]
  K0.5: 0.034 ± 0.002 mM
  kcat: 0.25 s⁻¹
  kcat/Km: 7300 M⁻¹ s⁻¹

B4: SyMDH (Synechocystis sp. PCC 6803 substr. Kazusa) (protein)
chain: MNILEYAPIACQSWQVTVVGAGNVGRTLAQRLVQQNVANVVLLDIVPGLPQGIALDLMAAQSVEEYDSKIIGTNEYEATAGSDVVVITAGLPRRPGMSRDDLLGKNANIVAQGAREALRYSPNAILIVVTNPLDVMTYLAWKVTGLPSQRVMGMAGVLDSARLKAFIAMKLGACPSDINTLVLGGHGDLMLPLPRYCTVSGVPITELIPPQTIEELVERTRNGGAEIAALLQTGTAYYAPASSAAVMVESILRNQSRILPAATYLDGAYGLKDIFLGVPCRLGCRGVEDILEVQLTPEEKAALHLSAEAVRLNIDVALAMVSDG
notes: as for B1
Purified protein [9]
  K0.5: 0.018 ± 0.002 mM
  kcat: 6.6 ± 0.5 s⁻¹
  kcat/Km: 364000 ± 19000 M⁻¹ s⁻¹
Purified protein [10]
  K0.5: 0.11 ± 0.002 mM
  kcat: 4 ± 0.04 s⁻¹
  kcat/Km: 36000 ± 1000 M⁻¹ s⁻¹
Purified protein [11]
  K0.5: 1.34 ± 0.30 mM
  kcat: 1.8 ± 0.1 s⁻¹
  kcat/Km: 1400 ± 200 M⁻¹ s⁻¹
Purified protein [2]; [18]
  K0.5: 1.61 ± 0.37 mM
  kcat: 1 s⁻¹
  kcat/Km: 640 M⁻¹ s⁻¹

B5: NoME (Nostoc sp. PCC 7120 = FACHB-418) (protein)
chain: MADLTPNSSFSVTLRLQIPNRVGMLASITQAIASSGGNLGQIDLIEQTRQVSLRDLTVDAASTEHAETIVQAVKAIPDIKLVSVYDRTFNLHRGGKISITSRIPLKSVSDLAMAYTPGVGRVCTAIAQDPSQVYNLTIKQNTVAIVTDGSAVLGLGNLGPHAALPVMEGKAMLFKEFAGLDAFPICLATQDTEEIIQAVKNIAPVFGGVNLEDIAAPRCFEIEKRLRDELDIPVFHDDQHGTAIVTLAALFNSLKLVQKSLADIRIVINGAGAAGVAIARLLRKAGAEKIWMCDSKGIISTTRTDLNEEKQEFAVKAQGTLAGAVQGADVFIGVSAPGVLTPEMVKSMAKDAIVFAMANPIPEIQPELISKDVAVIATGRSDYPNQINNVLAFPGVFRGALDCRAQTITTTMYLEAASAIASLVNPSDLSREHIIPSVFDERVVTAVAAAVQRAAREEGIARG
notes: as for B3
Purified protein [12]
  K0.5: 0.014 ± 0.004 mM
  kcat: 33.4 ± 3.2 s⁻¹
  kcat/Km: 2.53e+06 ± 436000 M⁻¹ s⁻¹
Purified protein [13]
  K0.5: 6.55 ± 0.38 mM
  kcat: 0.79 ± 0.03 s⁻¹
  kcat/Km: 120 ± 3 M⁻¹ s⁻¹
Purified protein [14]
  K0.5: 0.0074 ± 0.001 mM
  kcat: 0.85 ± 0.03 s⁻¹
  kcat/Km: 116000 ± 10000 M⁻¹ s⁻¹
Purified protein [2]; [19]
  K0.5: 0.41 ± 0.02 mM
  kcat: 30.3 s⁻¹
  kcat/Km: 75000 M⁻¹ s⁻¹

— article PMC9765476, “Malic Enzyme, not Malate Dehydrogenase, Mainly Oxidizes Malate That Originates from the Tricarboxylic Acid Cycle in Cyanobacteria” (mBio, 2022)
